Source: article PMC3646756

What was measured:
[1] = biological target: hIgG1 (anti-hsIL-6R antibody with wild-type human IgG1 constant region) (human); experiment: SPR; KD at pH 6.0 (Table 1); set-up told only for pH 7.0: antibody variant captured on Protein L on a CM4 chip, FcRn injected
[2] = biological target: hIgG1 Fc variant v1 (I332V/N434Y) (human); experiment: as above
[3] = biological target: hIgG1 (anti-hsIL-6R antibody with wild-type human IgG1 constant region) (human); experiment: SPR; Biacore T200; antibody variant captured on Protein L immobilised on a CM4 chip, FcRn injected over the flow cell; pH 7.0
[4] = biological target: hIgG1 Fc variant v1 (I332V/N434Y) (human); experiment: as above
[5] = biological target: recombinant human FcRn (human) (UniProt P55899)
[6] = biological target: hIgG1 Fc variant v3 (M252Y/N434Y) (human); experiment: SPR; KD at pH 6.0 (Table 1); set-up told only for pH 7.0: antibody variant captured on Protein L on a CM4 chip, FcRn injected
[7] = biological target: hIgG1 Fc variant v2 (M252W/N434W) (human); experiment: as above
[8] = biological target: hIgG1 Fc variant v6 (M252Y/V308P/N434Y) (human); experiment: as above
[9] = biological target: hIgG1 Fc variant v5 (M252Y/T307Q/Q311A/N434Y) (human); experiment: as above
[10] = biological target: hIgG1 Fc variant v4 (M252Y/N286E/N434Y) (human); experiment: as above
[11] = biological target: hIgG1 Fc variant v3 (M252Y/N434Y) (human); experiment: SPR; Biacore T200; antibody variant captured on Protein L immobilised on a CM4 chip, FcRn injected over the flow cell; pH 7.0
[12] = biological target: hIgG1 Fc variant v2 (M252W/N434W) (human); experiment: as above
[13] = biological target: hIgG1 Fc variant v6 (M252Y/V308P/N434Y) (human); experiment: as above
[14] = biological target: hIgG1 Fc variant v5 (M252Y/T307Q/Q311A/N434Y) (human); experiment: as above
[15] = biological target: recombinant mouse FcRn (mouse) (UniProt Q61559)

## recombinant mouse FcRn (from UniProt Q61559 22-365) (receptor)
[1]
  Kd: 237 nM
[2]
  Kd: 3 nM
[3]
  Kd: 3.92 µM
[4]
  Kd: 52 nM

## hIgG1 Fc variant v4 (M252Y/N286E/N434Y) (antibody)
[5]
  fold decrease in total hsIL-6R plasma concentration after PH-v4 against NPH-IgG1, 1 mg/kg i.v. with 1 g/kg hIgG, hFcRn-Tgm steady-state model: 50 fold

## recombinant human FcRn (from UniProt P55899 24-365) (receptor)
[6]
  Kd: 15 nM
[7]
  Kd: 6 nM
[8]
  Kd: 3 nM
[1]
  Kd: 1380 nM
[9]
  Kd: 5 nM
[10]
  Kd: 8 nM
[11]
  Kd: 288 nM
[12]
  Kd: 155 nM
[13]
  Kd: 35 nM
[3]
  Kd: 88 µM
[14]
  Kd: 77 nM

## hIgG1 Fc variant v1 (I332V/N434Y) (antibody)
[15]
  total hsIL-6R plasma concentration after PH-v1, 1 mg/kg i.v., normal mice steady-state model (reduction below the baseline): 150 fold
